Data: patent US20160159872A1

Assays:
6xHis-CtBP [1] = target: 6xHis-CtBP (UniProt Q13363); assay: competition assay of the CtBP/E1A interaction, FIG. 3
6xHis-CtBP [2] = target: 6xHis-CtBP (UniProt Q13363); assay: competition assay of the CtBP-E1A interaction (AlphaScreen or fluorescence polarization; not said which)
6xHis-CtBP [3] = target: 6xHis-CtBP (UniProt Q13363); assay: competition assay of the CtBP/E1A protein interaction (format not said)
6xHis-CtBP [4] = target: 6xHis-CtBP (UniProt Q13363); assay: fluorescence polarization; unlabeled peptide competes with the FITC-labeled 14mer peptide for CtBP

Substance | IC50 (6xHis-CtBP [1]) [µM] | IC50 (6xHis-CtBP [2]) [µM] | IC50 (6xHis-CtBP [3]) [µM] | IC50 (6xHis-CtBP [4]) [µM]
Tat-E1A-flag (peptide) | 7.7 | 1.7 | 1.7 | 
Wild-type 14mer E1A peptide … |  | 7.26 | 7.26 | 6
